In PMC6406557, “Lysozyme Aptamer-Functionalized Magnetic Nanoparticles for the Purification of Lysozyme from Chicken Egg White”:

Key:
[1] = target: lysozyme from egg white (chicken, UniProt P00698 19-147); assay: pull-down from egg white on aptamer-functionalized magnetic nanoparticles, SDS-PAGE; 113 +/- 4.2 mg/g from egg white; Adsorption optimum: 4.0 mg/mL lysozyme, 60 min, pH 9.0, 37 C, 0 M NaCl; egg white: mixed 1:1 with 20 mM PBS pH 7.2-8.0, 10 mg NPs per mL, 37 C, 60 min; settings: protein: native
[2] = target: lysozyme (chicken (Gallus gallus)?, UniProt P00698 19-147); assay: pull-down on aptamer-functionalized magnetic nanoparticles (adsorption, A280); capacity 460 +/- 3.4 mg/g at pH 9.0, 37 C, 0 M NaCl; bare Fe3O4 218.39 and NH2-Fe3O4 211.35 mg/g, so part is non-aptamer adsorption; Adsorption optimum: 4.0 mg/mL lysozyme, 60 min, pH 9.0, 37 C, 0 M NaCl; egg white: mixed 1:1 with 20 mM PBS pH 7.2-8.0, 10 mg NPs per mL, 37 C, 60 min; settings: protein: commercial
Sequence of lysozyme (P00698 19-147): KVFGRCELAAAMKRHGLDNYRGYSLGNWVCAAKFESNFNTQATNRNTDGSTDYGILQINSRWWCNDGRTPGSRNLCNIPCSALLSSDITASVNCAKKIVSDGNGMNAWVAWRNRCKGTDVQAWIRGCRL

Sequence of lysozyme from egg white (P00698 19-147): as above

TTTTTTATCAGGGCTAAAGAGTGC (ssDNA, 5'-aldehyde, coupled as imine to NH2-Fe3O4 nanoparticles) [lysozyme aptamer]
binding result [1]: binds
binding result [2]: binds
